# Data taken from US20230406902A1 (BIONTECH, published 2023).
# Bridges are numbered along the chain shown (N, C = ends). Where no end group is shown, it is not given here.
# Target: T1, IMAB362
# T1 construct: It is the target of the phage display selection; also called IMAB362 antibody
# Experiment: peptide microarray, 1 µg/ml IMAB362, fluorescence signal; this construct is the reference
# T1 sequence (VH, as listed by the source limits assumed, chain 1 of 2): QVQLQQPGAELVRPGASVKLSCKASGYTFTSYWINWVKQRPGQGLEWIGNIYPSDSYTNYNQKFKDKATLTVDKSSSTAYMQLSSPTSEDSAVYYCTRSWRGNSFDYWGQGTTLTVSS
# T1 sequence (VL, as listed by the source limits assumed, chain 2 of 2): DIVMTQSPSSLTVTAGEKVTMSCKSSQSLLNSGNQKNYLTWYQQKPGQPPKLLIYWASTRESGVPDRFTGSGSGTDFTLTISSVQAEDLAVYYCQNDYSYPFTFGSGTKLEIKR
row,% Affinity compared to hit peptide [%],Binder
1,100,"ACHYSYPGVCGGGSK (disulfide 2-10 (inferred); also: C-terminal Lys carries an unspecified functional group X for microarray attachment, Microarray construct; also called parental peptide (cyclic, immobilized through C-terminus)) [Cyclopeptide-GGS-K(X) of ACHYSYPGVCG (Seq. 2)]"
2,100,"ACHLNYPGYCGGGSK (disulfide 2-10 (inferred); also: C-terminal Lys carries an unspecified functional group X for microarray attachment, Microarray construct; also called parental peptide (cyclic, immobilized through C-terminus)) [Cyclopeptide-GGS-K(X) of ACHLNYPGYCG (Seq. 1)]"
3,100,"ACHLGYPGRCGGGSK (disulfide 2-10 (inferred); also: C-terminal Lys carries an unspecified functional group X for microarray attachment, Microarray construct; also called parental peptide (cyclic, immobilized through C-terminus)) [Cyclopeptide-GGS-K(X) of ACHLGYPGRCG (Seq. 3)]"
